Experimental data from patent publication US20160264649A1.

How the values were obtained:
Assay in all cases: cell-based or functional assay
[1] = molecular target: HIV-1 ADA Env (HIV-1)
[2] = molecular target: HIV-1 JR-CSF Env (wild-type) (HIV-1) (UniProt P20871)
[3] = molecular target: HIV-1 Env of isolate 92UG046 (subtype D) (HIV-1)
[4] = molecular target: HIV-1 Env of isolate 92WR024 (subtype A) (HIV-1)
[5] = molecular target: HIV-1 Env of isolate 93TH305 (subtype B) (HIV-1)
[6] = molecular target: HIV-1 Env of isolate 94 KE 105 (subtype AC) (HIV-1)
[7] = molecular target: HIV-1 Env of isolate APV_17 (subtype B) (HIV-1)
[8] = molecular target: HIV-1 Env of isolate CAAN.A2 (subtype B) (HIV-1)
[9] = molecular target: HIV-1 Env of isolate MG RM-C-023 (subtype C) (HIV-1)
[10] = molecular target: HIV-1 Env of isolate MGRM-AE-001 (subtype AE) (HIV-1)
[11] = molecular target: HIV-1 Env of isolate MGRM-AE-008 (subtype AE) (HIV-1)
[12] = molecular target: HIV-1 Env of isolate MGRM-Chronic-B-017 (subtype B) (HIV-1)
[13] = molecular target: HIV-1 Env of isolate MGRM-Chronic-B-018 (subtype B) (HIV-1)
[14] = molecular target: HIV-1 Env of isolate MGRM-Chronic-B-023 (subtype B) (HIV-1)
[15] = molecular target: HIV-1 Env of isolate MGRM-D-002 (subtype D) (HIV-1)
[16] = molecular target: HIV-1 Env of isolate MGRM-D-003 (subtype D) (HIV-1)
[17] = molecular target: HIV-1 Env of isolate MGRM-F1-018 (subtype F) (HIV-1)
[18] = molecular target: HIV-1 Env of isolate SC422661.8 (subtype B) (HIV-1)
[19] = molecular target: HIV-1 Env of isolate VLGCB3 (subtype B) (HIV-1)
[20] = molecular target: HIV-1 Env of pseudovirus isolate MGRM-G-017 (subtype G) (HIV-1)
[21] = molecular target: HIV-1 Env of isolate 92UG001 (subtype D) (HIV-1)
[22] = molecular target: HIV-1 Env of isolate 92UG005 (subtype D) (HIV-1)
[23] = molecular target: HIV-1 Env of isolate 92UG037 (subtype A) (HIV-1)
[24] = molecular target: HIV-1 Env of isolate 93UG077 (subtype A) (HIV-1)
[25] = molecular target: HIV-1 Env of isolate 98CN006 (subtype CRF08_BC) (HIV-1)
[26] = molecular target: HIV-1 Env of isolate APV_13 (subtype B) (HIV-1)
[27] = molecular target: HIV-1 Env of isolate CMU02 (subtype AE) (HIV-1)
[28] = molecular target: HIV-1 Env of isolate JRFL (subtype B) (HIV-1)
[29] = molecular target: HIV-1 Env of isolate MG RM-C-020 (subtype C) (HIV-1)
[30] = molecular target: HIV-1 Env of isolate MGRM-Chronic-B-011 (subtype B) (HIV-1)
[31] = molecular target: HIV-1 Env of isolate MGRM-Chronic-B-020 (subtype B) (HIV-1)
[32] = molecular target: HIV-1 Env of isolate MGRM-D-001 (subtype D) (HIV-1)
[33] = molecular target: HIV-1 Env of isolate MGRM-D-018 (subtype D) (HIV-1)
[34] = molecular target: HIV-1 Env of isolate MGRM-D-021 (subtype D) (HIV-1)
[35] = molecular target: HIV-1 Env of isolate MGRM-D-022 (subtype D) (HIV-1)
[36] = molecular target: HIV-1 Env of isolate MGRM-F1-015 (subtype F) (HIV-1)
[37] = molecular target: HIV-1 Env of isolate MGRM-F1-017 (subtype F) (HIV-1)
[38] = molecular target: HIV-1 Env of isolate MGRM-F1-021 (subtype F) (HIV-1)
[39] = molecular target: HIV-1 Env of isolate MGRM-F1-022 (subtype F) (HIV-1)
[40] = molecular target: HIV-1 Env of isolate MGRM-F1-023 (subtype F) (HIV-1)
[41] = molecular target: HIV-1 Env of isolate NL43 (subtype B) (HIV-1)
[42] = molecular target: HIV-1 Env of isolate QH0692.42 (subtype B) (HIV-1)
[43] = molecular target: HIV-1 Env of isolate SF162 (subtype B) (HIV-1) (UniProt P19550)
[44] = molecular target: HIV-1 Env of pseudovirus isolate MGRM-G-004 (subtype G) (HIV-1)
[45] = molecular target: HIV-1 Env of pseudovirus isolate MGRM-G-013 (subtype G) (HIV-1)
[46] = molecular target: HIV-1 Env of pseudovirus isolate MGRM-G-025 (subtype G) (HIV-1)
[47] = molecular target: envelope of aMLV pseudovirus (negative control)

Sequence of 1443_C16 (PG16) (TCN-116) (antibody) (VH): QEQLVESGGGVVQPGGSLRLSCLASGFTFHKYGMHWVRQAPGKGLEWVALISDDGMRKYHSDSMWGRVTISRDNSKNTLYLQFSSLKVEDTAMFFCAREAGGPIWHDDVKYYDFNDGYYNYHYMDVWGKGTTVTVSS
Sequence of 1443_C16 (PG16) (TCN-116) (antibody) (VL): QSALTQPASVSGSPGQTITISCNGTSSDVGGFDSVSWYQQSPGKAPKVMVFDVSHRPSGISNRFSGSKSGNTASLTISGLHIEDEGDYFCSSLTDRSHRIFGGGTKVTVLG

**Q.** For 1443_C16 (PG16) (TCN-116) (antibody), which IC50, TZM-bl pseudovirus neutralization [1] is on record?
**A.** 0.004 mg/L

**Q.** What about the IC50, TZM-bl pseudovirus neutralization [2] of the same substance?
**A.** 0.001 mg/L

**Q.** With 1496_C09 (PG9) (TCN-109) (antibody) as the substance, how does the IC50, TZM-bl pseudovirus neutralization [1] read?
**A.** 0.2 mg/L

**Q.** What about the IC50 (neutralization) [3] of the same substance?
**A.** 1.86 mg/L

**Q.** And the IC50 (pseudovirus neutralization) [4]?
**A.** 0.258 mg/L

**Q.** What about the IC50 [5] of the same substance?
**A.** 8.12 mg/L

**Q.** And the IC50 (pseudovirus neutralization) [6]?
**A.** 37.9 mg/L

**Q.** And the IC50 [7]?
**A.** 34.8 mg/L

**Q.** What about the IC50 [8] of the same substance?
**A.** 19.3 mg/L

**Q.** And the IC50 (µg/mL), pseudovirus neutralization [9]?
**A.** 0.614 µg/mL

**Q.** And the IC50 (pseudovirus neutralization) [10]?
**A.** 20.6 mg/L

**Q.** What about the IC50 (pseudovirus neutralization) [11] of the same substance?
**A.** 31.5 mg/L

**Q.** And the IC50 [12]?
**A.** 0.688 mg/L

**Q.** What about the IC50 [13] of the same substance?
**A.** 0.216 mg/L

**Q.** What about the IC50 [14] of the same substance?
**A.** 0.027 mg/L

**Q.** What about the IC50 (pseudovirus neutralization) [15] of the same substance?
**A.** 0.021 mg/L

**Q.** And the IC50 (pseudovirus neutralization) [16]?
**A.** 0.033 mg/L

**Q.** What about the IC50 (pseudovirus neutralization) [17] of the same substance?
**A.** 0.019 mg/L

**Q.** And the IC50 [18]?
**A.** 1.48 mg/L

**Q.** And the IC50 (µg/mL), pseudovirus neutralization [19]?
**A.** 0.022 µg/mL

**Q.** And the IC50 [20]?
**A.** 0.104 mg/L

**Q.** What about the IC50, TZM-bl pseudovirus neutralization [2] of the same substance?
**A.** 0.006 mg/L

**Q.** How did the IC50 (neutralization) [21] turn out when PGV04 (antibody) was run?
**A.** 0.553 mg/L

**Q.** And the IC50 (neutralization) [22]?
**A.** 0.44 mg/L

**Q.** And the IC50 (pseudovirus neutralization) [23]?
**A.** 0.145 mg/L

**Q.** And the IC50 (neutralization) [3]?
**A.** 22.4 mg/L

**Q.** And the IC50 (pseudovirus neutralization) [4]?
**A.** 0.31 mg/L

**Q.** And the IC50 [5]?
**A.** 0.255 mg/L

**Q.** What about the IC50 (pseudovirus neutralization) [24] of the same substance?
**A.** 0.083 mg/L

**Q.** What about the IC50 (pseudovirus neutralization) [6] of the same substance?
**A.** 2.98 mg/L

**Q.** And the IC50 (neutralization) [25]?
**A.** 1.32 mg/L

**Q.** What about the IC50 [26] of the same substance?
**A.** 1.23 mg/L

**Q.** What about the IC50 [7] of the same substance?
**A.** 0.309 mg/L

**Q.** What about the IC50 [8] of the same substance?
**A.** 2.26 mg/L

**Q.** And the IC50 (pseudovirus neutralization) [27]?
**A.** 1.24 mg/L

**Q.** And the IC50 [28]?
**A.** 0.032 mg/L

**Q.** And the IC50 (µg/mL), pseudovirus neutralization [29]?
**A.** 0.112 µg/mL

**Q.** What about the IC50 (µg/mL), pseudovirus neutralization [9] of the same substance?
**A.** 0.128 µg/mL

**Q.** What about the IC50 (pseudovirus neutralization) [10] of the same substance?
**A.** 0.063 mg/L

**Q.** And the IC50 (pseudovirus neutralization) [11]?
**A.** 1.51 mg/L

**Q.** What about the IC50 [30] of the same substance?
**A.** 0.497 mg/L

**Q.** And the IC50 [12]?
**A.** 0.129 mg/L

**Q.** What about the IC50 [13] of the same substance?
**A.** 0.164 mg/L

**Q.** What about the IC50 [31] of the same substance?
**A.** 1.26 mg/L

**Q.** And the IC50 [14]?
**A.** 0.139 mg/L

**Q.** What about the IC50 (pseudovirus neutralization) [32] of the same substance?
**A.** > 50 mg/L

**Q.** What about the IC50 (pseudovirus neutralization) [15] of the same substance?
**A.** 0.322 mg/L

**Q.** And the IC50 (pseudovirus neutralization) [16]?
**A.** > 50 mg/L

**Q.** What about the IC50 (pseudovirus neutralization) [33] of the same substance?
**A.** 17.5 mg/L

**Q.** And the IC50 (pseudovirus neutralization) [34]?
**A.** > 50 mg/L

**Q.** What about the IC50 (pseudovirus neutralization) [35] of the same substance?
**A.** > 50 mg/L

**Q.** And the IC50 (pseudovirus neutralization) [36]?
**A.** 0.179 mg/L

**Q.** And the IC50 (pseudovirus neutralization) [37]?
**A.** 2.38 mg/L

**Q.** What about the IC50 (pseudovirus neutralization) [17] of the same substance?
**A.** 0.027 mg/L

**Q.** What about the IC50 (pseudovirus neutralization) [38] of the same substance?
**A.** 0.031 mg/L

**Q.** What about the IC50 (pseudovirus neutralization) [39] of the same substance?
**A.** 0.072 mg/L

**Q.** And the IC50 (pseudovirus neutralization) [40]?
**A.** 0.171 mg/L

**Q.** What about the IC50 (µg/mL), pseudovirus neutralization [41] of the same substance?
**A.** 0.028 µg/mL

**Q.** And the IC50 [42]?
**A.** 1.9 mg/L

**Q.** What about the IC50 [18] of the same substance?
**A.** 0.11 mg/L

**Q.** What about the IC50 (µg/mL), pseudovirus neutralization [43] of the same substance?
**A.** 0.028 µg/mL

**Q.** And the IC50 (µg/mL), pseudovirus neutralization [19]?
**A.** 0.045 µg/mL

**Q.** What about the IC50 [44] of the same substance?
**A.** > 50 mg/L

**Q.** And the IC50 [45]?
**A.** 0.168 mg/L

**Q.** And the IC50 [20]?
**A.** 0.065 mg/L

**Q.** And the IC50 [46]?
**A.** 1.61 mg/L

**Q.** And the IC50 [47]?
**A.** > 50 mg/L

**Q.** Which results are given for VRC01 (antibody)?
**A.** IC50 (neutralization) [21]: 1.16 mg/L; IC50 (neutralization) [22]: 0.576 mg/L; IC50 (pseudovirus neutralization) [23]: 0.245 mg/L; IC50 (neutralization) [3]: 12.7 mg/L; IC50 (pseudovirus neutralization) [4]: 0.327 mg/L; IC50 [5]: 0.243 mg/L; IC50 (pseudovirus neutralization) [24]: 0.097 mg/L; IC50 (pseudovirus neutralization) [6]: 0.499 mg/L; IC50 (neutralization) [25]: 0.644 mg/L; IC50 [26]: 0.657 mg/L; IC50 [7]: 0.477 mg/L; IC50 [8]: 0.722 mg/L; IC50 (pseudovirus neutralization) [27]: 0.515 mg/L; IC50 [28]: 0.034 mg/L; IC50 [29]: 0.396 mg/L; IC50 [9]: 0.077 mg/L; IC50 (pseudovirus neutralization) [10]: 0.167 mg/L; IC50 (pseudovirus neutralization) [11]: 1.72 mg/L; IC50 [30]: 0.587 mg/L; IC50 [12]: 0.141 mg/L; IC50 [13]: 0.328 mg/L; IC50 [31]: 0.424 mg/L; IC50 [14]: 0.275 mg/L; IC50 (pseudovirus neutralization) [32]: > 50 mg/L; IC50 (pseudovirus neutralization) [15]: 0.252 mg/L; IC50 (pseudovirus neutralization) [16]: 2.06 mg/L; IC50 (pseudovirus neutralization) [33]: > 50 mg/L; IC50 (pseudovirus neutralization) [34]: 33.4 mg/L; IC50 (pseudovirus neutralization) [35]: > 50 mg/L; IC50 (pseudovirus neutralization) [36]: 0.387 mg/L; IC50 (pseudovirus neutralization) [37]: 1.08 mg/L; IC50 (pseudovirus neutralization) [17]: 0.032 mg/L; IC50 (pseudovirus neutralization) [38]: 0.039 mg/L; IC50 (pseudovirus neutralization) [39]: 0.055 mg/L; IC50 (pseudovirus neutralization) [40]: 0.392 mg/L; IC50 [41]: 0.1 mg/L; IC50 [42]: 1.19 mg/L; IC50 [18]: 0.179 mg/L; IC50 [43]: 0.421 mg/L; IC50 [19]: 0.108 mg/L; IC50 [44]: > 50 mg/L; IC50 [45]: 0.553 mg/L; IC50 [20]: 0.124 mg/L; IC50 [46]: 0.292 mg/L; IC50 [47]: > 50 mg/L
